Measurements taken from the DeepSol protein solubility set.

Experiment: soluble on expression in E. coli; label from the status in PepcDB or PDB records

| Sequence | soluble on expression in E. coli |
| --- | --- |
| MKVLVVGSGGREHALLWKAAQSPRVKRLYAAPGNAGMEALAELVPWNGDVEALADWALAEGIDLTLVGPEAPLVEGIADAFQARGLLLFGPTQKAAMIEGSKAFAKGLMERYGIPTARYRVFREPLEALAYLEEVGVPVVVKDSGLAAGKGVTVAFDLHQAKQAVANILNRAEGGEVVVEEYLEGEEATVLALTDGETILPLLPSQDHKRLLDGDQGPMTGGMGAVAPYPMDEATLRRVEEEILGPLVRGLRAEGVVYRGVVYAGLMLTREGPKVLEFNARFGDPEAQALLPLLENDLVELALRVAEGRLAGTRLSWKEGAAACVVLAAPGYPESPRKGIPLHVPEPPEGVLVFHAGTRREGGRLVSAGGRVLNVVGLGRDLKEALERAYAYIPQVGFPGAVYRRDIGRRALARLST | soluble |
| MKVNIDPTAPTFATYRRDMRAEQMAEDYPVVSIDSDALDAARMLAEHRLPGLLVTAGAGKQYAVLPASQVVRFIVPRYVQDDPLLAGVLNESTADRCAERLSGKKVRDVLPDHLVEVPPANADDTIIEVAAVMARLRSPLLAVVKDGSLLGVVTASRLLAAALKT | soluble |
| MKVNNTIVVSIGQAGNQIAASFWKTVCLEHGIDPLTGQTAPGVAPRGNWSSFFSKLGESSSGSYVPRAIMVDLEPSVIDNVKATSGSLFNPANLISRTEGAGGNFAVGYLGAGREVLPEVMSRLDYEIDKCDNVGGIIVLHAIGGGTGSGFGALLIESLKEKYGEIPVLSCAVLPSPQVSSVVTEPYNTVFALNTLRRSADACLIFDNEALFDLAHRKWNIESPTVDDLNLLITEALAGITASMRFSGFLTVEISLRELLTNLVPQPSLHFLMCAFAPLTPPDRSKFEELGIEEMIKSLFDNGSVFAACSPMEGRFLSTAVLYRGIMEDKPLADAALAAMREKLPLTYWIPTAFKIGYVEQPGISHRKSMVLLANNTEIARVLDRICHNFDKLWQRKAFANWYLNEGMSEEQINVLRASAQELVQSYQVAEESGAKAKVQDSAGDTGMRAAAAGVSDDARGSMSLRDLVDRRR | soluble |
| MKVRNVIIGFMVASLTGCSMGHRDPVEIKQTLDKSINENGGLLLADLPASVQADLMPELNTPHVEVEEPVKRFRVRANGVGAKAFFTSLVKGTEYSVVIHPQVSGRITMNLSDVTMDDVLSSVEDLYGYDIVKAGKVLQVYPATIRTETIPVDYLQLTRKGRSLTTITTGSITNSDNNSSNNNNSSSKSNNNSSSSSSSATGGTEIETTSESDFWKELETAISVMIGNGADRSVVVSPQASVVTITASPDELRKVKQFLGTSHKRLQRQVILEAKLLEVTLSDGYQQGINWSNLTASLGGTDVVFGQTSGLVQGALPGMDTIGTLLGGQTNITVSDGNFQAVLSFMDTQGDLNVLSSPRVTAANNQKAVIKVGRDEYYVTEVSSVTGSGDNSNASPEVTLTPFFSGISLDVTPQIDDKGNVMLHVHPSVIDVENEVKEIDLGDVGGVLKLPLAKSSIRESDSVIRAKSGDVVVIGGLMKSQTVDQVSKVPLLGDVPALGHLFRNVSQLTQKTELVILLKPTVVGVDTWQEELERSRDLLQEWFPDELEHHHHHH | soluble |
| MKVVVIGGGWSGVAAAIEAKKMGADVVLFEKTDLLLGLGNVGGIMRNNGRYTASEELIAMGGGDLINITDKVSRHKDIPFPGHEHAWLYDVNLVEGEVKRYVESLGIETKMVSRIIDIKQEDNKILGVYTSDGQYYNGDVFIETTGSTGPMGNCLRYGNGCSMCILRCPSFGPRISISSRCGVEDIQGERVGDELGAFSGSCKLAKETLSEEIRKELEEKGCVVLKIPKEDVNYDKLNTKVCQQYALKEFAENVVLLDTGHAKLMTTYYPLEKLRKIKGLENAKYVDPYAGGKGNSIRYLSVAPRDDNMKVKGVTNLFCAGEKSGLFVGHTEAIVTGTLAGHNAVRHALGIPYLILPRATVLGDIIAFANEESQSREGKKNRYTFAGSVYFNRMKELGLYTIDKDEIQKRVAQLNLDGVFSKKLMLEHHHHHH | not soluble |
| MKYDTSELCDIYQEDVNVVEPLFSNFGGRASFGGQIITVKCFEDNGLLYDLLEQNGRGRVLVVDGGGSVRRALVDAELARLAVQNEWEGLVIYGAVRQVDDLEELDIGIQAMAAIPVGAAGEGIGESDVRVNFGGVTFFSGDHLYADNTGIILSEDPLDIE | soluble |
| MKYSKEYDEKTVVKINDVKFGEGFTIIAGPCSIESREQIMKVAEFLAEVGIKVLRGGAFKPRTSPYSFQGYGEKALRWMREAADEYGLVTVTEVMDTRHVELVAKYSDILQIGARNSQNFELLKEVGKVENPVLLKRGMGNTIQELLYSAEYIMAQGNENVILCERGIRTFETATRFTLDISAVPVVKELSHLPIIVDPSHPAGRRSLVIPLAKAAYAIGADGIMVEVHPEPEKALSDSQQQLTFDDFLQLLKELEALGWKG | soluble |
| MKYTITVMSGKGGVGKSTVAVNLAVSLARKGLKVGLIDADINGPDDPKLLGVSDLKLYADEEGIIPAETRYGVRVVSMGFLIPTEDTPIIWRGSLMHKAIQQFLEDVNWKDTDVVVLDMPPGTGDVALSVAQLIPESNGVVIVVTPQDVALLDAKKAINFAKQLKLPVLGIIENMSGFVCPHCGNVTYIFKNGGGEKSAKEYNLPFLGKIPLIPEIAENGDNGIPAVVINDKIREIFDSITDQILKEAQIENIKQLEHHHHHH | not soluble |
| MLAAGMSRRMGFNKLLAPLCGKRVLWHVLELVARFEGVLEGAVVVTSGEVADVLRRERPPGRRGLFRVVVNREQWRGLSHSIRLGVEASPGARAYLFFNGDRPFVSKHTVARVLALYMARRPLIAAPMAGGAIAPPVVVDSRLRGELLRLSGDTGVRSLFGKYRDSLAVVEVDDPGLHLDVDTPEDLERASKMCSQLGGGPREKPLEHHHHHH | not soluble |
| MLAAWLGCVLPAGAGLPVETLRVPPGFRVELLTEAMPSAREMALSPAGILYVGSRTGKVYALPLQVPGATVRVVASGLEQPVGVAWRDGSLYVSAVSRVVRLDRIDSRLDDPPVPVVVSDRFPTETHHGWKFIAFGPDGKLYVPVGAPCNVCHRDEDRYANLMRMNADGSSLEVVARGIRNTVGFDWHPVTHELWFTDNGADMMGDDVPDDELNRITAPGQHFGYPFCHAGDVPDPEFGAGHPCSRYVPPVGKLGAHVAALGMRFYTGSNFPQAYRHNLFIAEHGSWNRSSKVGYRVVRVVLDAAGKVVRQEPFVEGWLRGERAWGRPVDVLVAPDGSLLVSDDYAGAVYRVRYTGKLEHHHHHH | soluble |
| MLAKIIMKNFKSFKNETVIDFTRINYKFLENNVSNNGVLKGVAFYGANASGKSNVLWAIRFLLDELFGEEKNPVTFMKCLFSDEPEFSLQYFFVIESREIHYLIDFHTEKGIINEELYLDRKLLLQRMGSTAKSGITEKKVYTDLNNKVLFLRTVYFNTGFSGDDKDNNANNNILRQWFDYMQNSIYVNPFLHRGIAYGKQDVVLNKYLENEGVKEINRFFTKYNFEYTLDYLNERKVKDVTEIVNDDNIKLVFFNRKGVNVPIPYVLESHGNQNLLNILPCFLRVVQNSGMLLVDEFSGGLHNELERLLVNYFFLEHHHHHH | not soluble |
| MLAVHRPSSAVSDGDSVQIPMMIASFQKRFPSLSRDSTAARFHTHEVGPNQCCSAVIQEISAPISTVWSVVRRFDNPQAYKHFLKSCSVIGGDGDNVGSLRQVHVVSGLPAASSTERLDILDDERHVISFSVVGGDHRLSNYRSVTTLHPSPISGTVVVESYVVDVPPGNTKEETCDFVDVIVRCNLQSLAKIAENTAAESKKKMSL | not soluble |
| MLCAKNKKDPKPPPASFSETSKVQNVQNTQPKPAAPSQMSIDESHSKNQKLPSAEKSVEECKKPVSPEKKKSPIKVLSEKKLKSKKKEEDKEPDEKVEKDVKKEVKADNNEPLVKNLKIAKKEQEEENPKTDLESHKDEAEAKKKESRRQKKMRNKNSKEGSVEKMEKSEKAY | not soluble |
| MLDFAAIDFETANAERTSVCSVGIIVVRGGQIVHRYYSLIRPEPDYYNYHNTRVHGLTAADTESARIFPDVWAEVEPLIAGLPLVAHNKPFDEGCLKAVFRMYRMDYPDYPFFCTLQAARRQLRHLSDHRLPTVAQCCGYTLAQHHQALADAEACAAIALKLL | not soluble |
| MLDLFADEAPWQEPLAPGAVVLRRFAFRAAQSLLDDIGFVASQSPFRQMVTPGGYTMSVAMTNCGALGWTTDRHGYCYAVRDPLTDKPWPALPLSFASVCRQAAIAAGYASFQPDACLINRYAPGAKLSLHQDKDEPDLRAPIVSVSLGVPAVFQFGGLRRSDPIQRILLEHGDIVVWGGESRLFYHGIQPLKAGFHPMTGEFRYNLTFRQAAEKELEHHHHHH | soluble |
| MLDLIQTRRDLHQIPEIGLEEFKTQAYLLDVIEKLTTGKDFVQIRTWRTGILVYLQGSQPERTIGWRTDIDGLPIVEQTGLPFASQHQGRMHACVHDFHMTIALGCLERALEEQPKNNLLFLFQPAEENEAGGMLMYEDGAFGDWLPDQFYGLHVRPDLKVGQIATNTHTLFAGTCEVKIRFKGKGGHAAFPHEANDALVAASYFVTQVQSVVSRNVNPIEGAVVTFGVFQAGTTNNVITDTAFLHGTIRALTQDMSLLVQKRVKTVAEGVAAAFDMEVEVELKQGGYLPVENNPALARELMDFFDEKDGIELIDIEPAMTGEDFGYLLSKVDGVMFWLGIDSPYALHHPQMSPKEEVLAIGVAAVSSFLKKKAAE | soluble |
| MLDPELIGNPEDILEKPALKILGKEVEVYDLSNPFGYGVPLWPYFNDVIIDRYHYHAKSRVLSQIITTTMHVSTHADAPIHVEEGFPSIDEVPIERYMGEGVVVSIPKKKWEVITAEDLEKADPPIEKGDIVIVNTGWHRYWSDSVKYFCYAPGFYKEAGEWFVKKKVKAVGIDTQALDHPLATREAWHHPGADERNSILPWLKEEYKQLTGRDVSEDFPYWEPCHRLLLTHGIMGWENVGGDIDKVTGQRCTIIGLPIRWVKGDGSIVRLVALVEKR | soluble |
| MLEALRKCPTMFAVTSDGSSTMAKMDNSARQLALFVATTNGEFYQSNFGEEALETIKYQLGKDAGWGLFFDVLRNAFNGNCVSILARSEDTAHILCGKEDCSEKSALCFPIQKTEEDTSATILKCLVDANAVYANPKEEKNKVQKIMEELEKAKLQVRMLEEEVRVLCENNIWRRKQDTKNTLKIGKLRDNISRLSNQINPKAKEVSETSVGETSGPHAEDSYIPGRKLLRLVFEKKECKEYDVELLRLIKSRWPKTEGSKACNASNCLIDPYTESELPERLSRMSKKHKMVWGTLNGLDDWDYNVFELQAAIDGDDINCKNDQSGCGALFITMYALVVKYGFLRKFEINERIFLNWLSAVEGGYHANPYHNSMHAADVLHITHYLLSKGGLAELCKLNDRQVLAALFAAAIHDYNHPGINNNFSILTQTYNATLYNDRSVLENMHVASVFELMRNPALNILACFSEEHWRDFRNTVIDMVLATDMSLHEKYMTQFKRRLSEKRPFTEDCDQNLALAMALKLADISNCCRPLPLYLKWSERVSDEFYTQGDRERSLGMSCSPFMDRQTPMIAEGQTSFINYIFIPFLEVMAEFLPSMGFTLGLAAVCKSHRLVGNTGQGT | not soluble |
| MLEDDFGREVSGVRVSLTDRCNFDCVYCHNEGLGDTRGPMEAQDDELTADTIVAFLEVAAEFGVDSVKFTGGEPMLREDLEEIVRRAPDEMEVSMTTNGTFLPGRAPDLVDAGLERVNVSQDALDSEAFAELTQSGAYDRVLEGVEAALDAGLEPVKLNMVVFEPTAGYVPKMVDHVAENPGLQLQLIEYMPELAGHPEWAIDIDRVHDWLEDRADKVEHREMHDRKRYWMHSGEAAVEGDSASTSLAASDGGIRTEPVNNHNSGMVEIVDPVGNENFCANCHRVRLTHDGYLKGCLNRNDDLRDIGTTKESMRAAFRETVDTRVPYYGEYMIETEDGEWEINEEYIDTDGDRAPYEYSE | not soluble |
